{"source": "patent US8652790", "about": "(University of Pennsylvania, dated 2014)", "binders": {"B1": {"name": "PDE(p), peptide of the calmodulin-binding domain of phosphodiesterase (C15S) (peptide)", "peptide": "QTEKMWQRLKGILRSLVKQ", "notes": "C15S is used to avoid oxidation; also called PDEs(p)"}, "B2": {"name": "eNOS(p), peptide of the calmodulin-binding domain of endothelial nitric oxide synthase (peptide)", "peptide": "RKKTFKEVANAVKISASLMG", "notes": "Synthetic peptide for ITC and for titration of CaM; The expressed version used for target-domain NMR carries an extra amino-terminal GS"}, "B3": {"name": "nNOS(p), peptide of the calmodulin-binding domain of neuronal nitric oxide synthase (peptide)", "peptide": "KRRAIGFKKLAEAVKFSAKLMGQ", "notes": "Synthetic peptide for ITC and for titration of CaM"}, "B4": {"name": "CaMKI(p), peptide of the calmodulin-binding domain of calmodulin kinase I (peptide)", "peptide": "AKSKWKQAFNATAVVRHMRKLQ", "notes": "Synthetic peptide for ITC and for titration of CaM; The expressed version used for target-domain NMR carries an extra amino-terminal GS; also called CaMK1p"}}, "key": {"[1]": {"target": "T1, calcium-saturated calmodulin (human CaM, GenBank AAD45181) (human, UniProt P0DP23 2-149)", "assay": "isothermal titration calorimetry, CaM (200 µM) titrated into 5-20 µM peptide, 308 K"}, "[2]": {"target": "T1, calcium-saturated calmodulin (human …)", "assay": "isothermal titration calorimetry, CaM (200 µM) titrated into 5-20 µM peptide, 308 K; footnote c: From Frederick et al."}}, "data": [{"binder": "B1", "values": [{"measurement": "-TΔSbinding^total", "setting": "[1]", "result": 8.1, "unit": "kcal/mol"}, {"measurement": "ΔGbinding^total", "setting": "[1]", "result": -9.06, "unit": "kcal/mol"}, {"measurement": "ΔHbinding^total", "setting": "[1]", "result": -17.2, "unit": "kcal/mol"}]}, {"binder": "B2", "values": [{"measurement": "-TΔSbinding^total", "setting": "[1]", "result": 6.14, "unit": "kcal/mol"}, {"measurement": "ΔGbinding^total", "setting": "[1]", "result": -11.8, "unit": "kcal/mol"}, {"measurement": "ΔHbinding^total", "setting": "[1]", "result": -17.9, "unit": "kcal/mol"}]}, {"binder": "B3", "values": [{"measurement": "-TΔSbinding^total", "setting": "[1]", "result": -0.454, "unit": "kcal/mol"}, {"measurement": "ΔGbinding^total", "setting": "[1]", "result": -12.4, "unit": "kcal/mol"}, {"measurement": "ΔHbinding^total", "setting": "[1]", "result": -11.9, "unit": "kcal/mol"}]}, {"binder": "B4", "values": [{"measurement": "-TΔSbinding^total", "setting": "[2]", "result": 16.6, "unit": "kcal/mol"}, {"measurement": "ΔGbinding^total", "setting": "[2]", "result": -11.8, "unit": "kcal/mol"}, {"measurement": "ΔHbinding^total", "setting": "[2]", "result": -28.4, "unit": "kcal/mol"}]}]}
